Experimental data from the MegaScale stability set (Tsuboyama et al. 2023).

B1: EHEE_rd3_0053 (parent)
chain: TYTFKVDNKDQAKKAAKWAKKLGLSFQIEKHGDTFKITVQ

Variants of: B1
Experiment: folding stability dG (cDNA display proteolysis); higher = more stable
Conditions: PBS, room temperature

| Variant | folding stability dG [kcal/mol] |
| --- | --- |
| TYTFKVDNKDMAKKAAKWAKKLGLSFQIEKHGDTFKITVQ [Q11M] | 2.36 |
| TYTFKVDNKDNAKKAAKWAKKLGLSFQIEKHGDTFKITVQ [Q11N] | 1.72 |
| TYTFKVDNKDPAKKAAKWAKKLGLSFQIEKHGDTFKITVQ [Q11P] | 0.025 |
| TYTFKVDNKDRAKKAAKWAKKLGLSFQIEKHGDTFKITVQ [Q11R] | 1.99 |
| TYTFKVDNKDSAKKAAKWAKKLGLSFQIEKHGDTFKITVQ [Q11S] | 2.18 |
| TYTFKVDNKDTAKKAAKWAKKLGLSFQIEKHGDTFKITVQ [Q11T] | 1.93 |
| TYTFKVDNKDVAKKAAKWAKKLGLSFQIEKHGDTFKITVQ [Q11V] | 1.95 |
| TYTFKVDNKDWAKKAAKWAKKLGLSFQIEKHGDTFKITVQ [Q11W] | 1.79 |
| TYTFKVDNKDYAKKAAKWAKKLGLSFQIEKHGDTFKITVQ [Q11Y] | 1.74 |
| TYTFKVDNKDQCKKAAKWAKKLGLSFQIEKHGDTFKITVQ [A12C] | 3.23 |
| TYTFKVDNKDQDKKAAKWAKKLGLSFQIEKHGDTFKITVQ [A12D] | -0.537 |
| TYTFKVDNKDQEKKAAKWAKKLGLSFQIEKHGDTFKITVQ [A12E] | 0.263 |
| TYTFKVDNKDQFKKAAKWAKKLGLSFQIEKHGDTFKITVQ [A12F] | 1.36 |
| TYTFKVDNKDQGKKAAKWAKKLGLSFQIEKHGDTFKITVQ [A12G] | 1.05 |
| TYTFKVDNKDQHKKAAKWAKKLGLSFQIEKHGDTFKITVQ [A12H] | 0.275 |
| TYTFKVDNKDQIKKAAKWAKKLGLSFQIEKHGDTFKITVQ [A12I] | 1.97 |
| TYTFKVDNKDQKKKAAKWAKKLGLSFQIEKHGDTFKITVQ [A12K] | 1.26 |
| TYTFKVDNKDQLKKAAKWAKKLGLSFQIEKHGDTFKITVQ [A12L] | 2.42 |
| TYTFKVDNKDQMKKAAKWAKKLGLSFQIEKHGDTFKITVQ [A12M] | 2.25 |
| TYTFKVDNKDQNKKAAKWAKKLGLSFQIEKHGDTFKITVQ [A12N] | -0.078 |
| TYTFKVDNKDQPKKAAKWAKKLGLSFQIEKHGDTFKITVQ [A12P] | -0.057 |

| Variant | folding stability dG [kcal/mol] |
| --- | --- |
| TYTFKVDNKDQQKKAAKWAKKLGLSFQIEKHGDTFKITVQ [A12Q] | 0.843 |
| TYTFKVDNKDQRKKAAKWAKKLGLSFQIEKHGDTFKITVQ [A12R] | 1.29 |
| TYTFKVDNKDQSKKAAKWAKKLGLSFQIEKHGDTFKITVQ [A12S] | 1.17 |
| TYTFKVDNKDQTKKAAKWAKKLGLSFQIEKHGDTFKITVQ [A12T] | 1.06 |
| TYTFKVDNKDQVKKAAKWAKKLGLSFQIEKHGDTFKITVQ [A12V] | 2.33 |
| TYTFKVDNKDQWKKAAKWAKKLGLSFQIEKHGDTFKITVQ [A12W] | 1.29 |
| TYTFKVDNKDQYKKAAKWAKKLGLSFQIEKHGDTFKITVQ [A12Y] | 1.31 |
| TYTFKVDNKDQAAKAAKWAKKLGLSFQIEKHGDTFKITVQ [K13A] | 2.31 |
| TYTFKVDNKDQACKAAKWAKKLGLSFQIEKHGDTFKITVQ [K13C] | 3.24 |
| TYTFKVDNKDQADKAAKWAKKLGLSFQIEKHGDTFKITVQ [K13D] | 2.46 |
| TYTFKVDNKDQAEKAAKWAKKLGLSFQIEKHGDTFKITVQ [K13E] | 2.32 |
| TYTFKVDNKDQAFKAAKWAKKLGLSFQIEKHGDTFKITVQ [K13F] | 2.23 |
| TYTFKVDNKDQAGKAAKWAKKLGLSFQIEKHGDTFKITVQ [K13G] | 1.72 |
| TYTFKVDNKDQAHKAAKWAKKLGLSFQIEKHGDTFKITVQ [K13H] | 2.07 |
| TYTFKVDNKDQAIKAAKWAKKLGLSFQIEKHGDTFKITVQ [K13I] | 2.49 |
| TYTFKVDNKDQALKAAKWAKKLGLSFQIEKHGDTFKITVQ [K13L] | 2.46 |
| TYTFKVDNKDQAMKAAKWAKKLGLSFQIEKHGDTFKITVQ [K13M] | 2.55 |
| TYTFKVDNKDQANKAAKWAKKLGLSFQIEKHGDTFKITVQ [K13N] | 2.27 |
| TYTFKVDNKDQAPKAAKWAKKLGLSFQIEKHGDTFKITVQ [K13P] | -0.412 |
| TYTFKVDNKDQAQKAAKWAKKLGLSFQIEKHGDTFKITVQ [K13Q] | 2.3 |
| TYTFKVDNKDQARKAAKWAKKLGLSFQIEKHGDTFKITVQ [K13R] | 2.66 |

| Variant | folding stability dG [kcal/mol] |
| --- | --- |
| TYTFKVDNKDQASKAAKWAKKLGLSFQIEKHGDTFKITVQ [K13S] | 2.11 |
| TYTFKVDNKDQATKAAKWAKKLGLSFQIEKHGDTFKITVQ [K13T] | 2.12 |
| TYTFKVDNKDQAVKAAKWAKKLGLSFQIEKHGDTFKITVQ [K13V] | 2.3 |
| TYTFKVDNKDQAWKAAKWAKKLGLSFQIEKHGDTFKITVQ [K13W] | 2.35 |
| TYTFKVDNKDQAYKAAKWAKKLGLSFQIEKHGDTFKITVQ [K13Y] | 2.32 |
| TYTFKVDNKDQAKAAAKWAKKLGLSFQIEKHGDTFKITVQ [K14A] | 2.62 |
| TYTFKVDNKDQAKDAAKWAKKLGLSFQIEKHGDTFKITVQ [K14D] | 1.56 |
| TYTFKVDNKDQAKEAAKWAKKLGLSFQIEKHGDTFKITVQ [K14E] | 1.95 |
| TYTFKVDNKDQAKFAAKWAKKLGLSFQIEKHGDTFKITVQ [K14F] | 2.14 |
| TYTFKVDNKDQAKGAAKWAKKLGLSFQIEKHGDTFKITVQ [K14G] | 1.53 |
| TYTFKVDNKDQAKHAAKWAKKLGLSFQIEKHGDTFKITVQ [K14H] | 2.06 |
| TYTFKVDNKDQAKIAAKWAKKLGLSFQIEKHGDTFKITVQ [K14I] | 2.21 |
| TYTFKVDNKDQAKLAAKWAKKLGLSFQIEKHGDTFKITVQ [K14L] | 2.33 |
| TYTFKVDNKDQAKMAAKWAKKLGLSFQIEKHGDTFKITVQ [K14M] | 2.34 |
| TYTFKVDNKDQAKNAAKWAKKLGLSFQIEKHGDTFKITVQ [K14N] | 2 |
| TYTFKVDNKDQAKPAAKWAKKLGLSFQIEKHGDTFKITVQ [K14P] | -0.126 |
| TYTFKVDNKDQAKQAAKWAKKLGLSFQIEKHGDTFKITVQ [K14Q] | 2.24 |
| TYTFKVDNKDQAKRAAKWAKKLGLSFQIEKHGDTFKITVQ [K14R] | 2.62 |
| TYTFKVDNKDQAKSAAKWAKKLGLSFQIEKHGDTFKITVQ [K14S] | 2.04 |
| TYTFKVDNKDQAKTAAKWAKKLGLSFQIEKHGDTFKITVQ [K14T] | 1.89 |
